The values that follow come from patent US20150246947A1 (BAXALTA, published 2015).

The target of test [1] is T1, human Protein S (human, UniProt P07225 42-676).
T1 sequence: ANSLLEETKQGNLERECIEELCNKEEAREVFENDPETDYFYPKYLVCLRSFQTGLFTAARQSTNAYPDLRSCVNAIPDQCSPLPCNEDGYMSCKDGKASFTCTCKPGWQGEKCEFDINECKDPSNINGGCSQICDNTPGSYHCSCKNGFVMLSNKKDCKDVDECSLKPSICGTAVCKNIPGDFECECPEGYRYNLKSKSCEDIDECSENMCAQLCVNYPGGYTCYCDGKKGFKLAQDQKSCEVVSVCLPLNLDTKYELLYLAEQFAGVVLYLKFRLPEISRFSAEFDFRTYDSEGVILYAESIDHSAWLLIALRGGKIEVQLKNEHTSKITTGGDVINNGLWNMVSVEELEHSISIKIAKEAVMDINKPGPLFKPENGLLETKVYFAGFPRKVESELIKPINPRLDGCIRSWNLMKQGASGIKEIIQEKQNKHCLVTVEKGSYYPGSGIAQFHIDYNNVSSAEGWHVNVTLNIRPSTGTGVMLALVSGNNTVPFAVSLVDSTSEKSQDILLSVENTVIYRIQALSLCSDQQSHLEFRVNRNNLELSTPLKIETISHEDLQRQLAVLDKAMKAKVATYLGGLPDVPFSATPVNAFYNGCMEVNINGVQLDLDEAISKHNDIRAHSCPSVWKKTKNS
The test is described as follows: cell-based or functional assay.

Test [2] concerns the target T1, human Protein S. The test is described as follows: Biacore (SPR), Protein S immobilized. A digest of the protocol:
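Surface plasmon resonance was used to measure peptide binding kinetics to human full-length Protein S, and Kd was calculated from the kon and koff obtained by Langmuir model fits of the sensorgrams. The protein was immobilized at 1000 RU on a […] chip in a Biacore 3000 or Biacore T200. Peptides were injected at various concentrations in HBS-buffer with 3 mM CaCl₂ and 1% DMSO, and the chip was regenerated using 4 M MgCl₂ in HBS-buffer.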
(In general: In SPR one partner is held on a chip, and binding of the other changes the refractive index at the surface.)

The target in test [3] is T2, human GAS6 (human, UniProt Q14393 49-678, limits assumed).
T2 construct: Immobilized on the Biacore chip; also called protein encoded by the Growth Arrest Specific-6 gene; anti-target
T2 sequence (looked up): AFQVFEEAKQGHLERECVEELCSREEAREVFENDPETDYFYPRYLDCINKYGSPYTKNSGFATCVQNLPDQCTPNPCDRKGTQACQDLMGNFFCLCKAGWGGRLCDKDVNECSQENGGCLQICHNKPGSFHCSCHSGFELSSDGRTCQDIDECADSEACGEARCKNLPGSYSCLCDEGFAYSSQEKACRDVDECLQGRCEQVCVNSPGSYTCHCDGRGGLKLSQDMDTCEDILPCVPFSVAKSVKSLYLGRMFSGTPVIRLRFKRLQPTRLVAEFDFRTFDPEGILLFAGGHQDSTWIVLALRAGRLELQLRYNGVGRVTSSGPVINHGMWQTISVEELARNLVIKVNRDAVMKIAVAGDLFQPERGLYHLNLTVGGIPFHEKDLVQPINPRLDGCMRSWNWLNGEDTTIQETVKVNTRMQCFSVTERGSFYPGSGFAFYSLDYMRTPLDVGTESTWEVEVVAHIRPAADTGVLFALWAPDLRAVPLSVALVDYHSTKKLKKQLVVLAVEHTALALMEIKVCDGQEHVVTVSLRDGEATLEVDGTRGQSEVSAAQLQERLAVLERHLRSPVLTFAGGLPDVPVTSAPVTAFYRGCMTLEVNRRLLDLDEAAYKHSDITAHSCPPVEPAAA
Put plainly: method not restated (Biacore in Example 3). A digest of the protocol:
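Binding to the anti-target human GAS6 was tested by surface plasmon resonance (Biacore), with 1000 RU GAS6 immobilized on a […] chip. Peptides were injected at various concentrations in HBS-buffer with 3 mM CaCl₂ and 1% DMSO, and the chip was regenerated with 4 M MgCl₂. Kinetic fitting of the GAS6 signals was error prone, so sensorgrams were reviewed visually to estimate anti-target binding.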

The target of test [4] is T3, human Protein S (UniProt P07225 42-676).
T3 chain: T1 sequence
The test is described as follows: LANCE competition. The essentials: (§1)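 A homogeneous time-resolved FRET (LANCE) competition format paired europium-labelled Protein S and ULight-labelled streptavidin with a biotinylated tracer peptide, against which unlabelled test peptide was titrated three-fold. With final concentrations of 10 nM Protein S, 100 nM streptavidin and 300 nM tracer in 50 µl, or 2 nM Protein S and 60 nM tracer when a Tecan F500 was used, samples stood 1 hour at room temperature. Emission was read at 665 nm with excitation at 340 nm. Non-linear regression of these signals gave the IC50.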
For orientation: Time-resolved FRET reads energy transfer from a long-lived donor to a nearby acceptor.

For test [5], the target named is T3, human Protein S. Put plainly: LANCE competition. The essentials: as §1
Test [6] deals with T1, human Protein S. Put plainly: LANCE TR-FRET; peptide added to preformed C4BP/Protein S complex; competitor C4BP. Here is the method: To investigate the effect of the peptides described herein on PS/C4BP complexes, a LANCE IC50 assay was established using methods similar to those described above. JBS2572 or JBS3216 was added to a preformed C4BP/PS complex. Changes in the complex concentration were followed by recording the TR-FRET signal. For both peptides, a time- and concentration-dependent dissociation of the C4BP/PS complex was observed. […] The time-dependency of the complex reduction was similar for both peptides. After two hours of incubation in the presence of 100 nM JBS2572 or JBS3216, the C4BP/PS complex was reduced to 60% and 50%, respectively. In addition, binding of biotinylated JBS2572 to Protein S was inhibited by C4BP in the LANCE IC50 assay. Pull-down experiments where JBS2697 was coupled to streptavidin sepharose and incubated for one hour at room temperature with (a) Protein S (1.6 pmol) (b) C4BP (8.5 pmol) and (c) Protein S (1.6 pmol)+C4BP (8.5 pmol) supported the results from the modified LANCE IC50 assay. JBS2697 interacted with free Protein S only from experiment (a) with Protein S alone and from experiment (c) with the C4BP-Protein S mixture.

The Kd is the equilibrium constant for the complex coming apart. Read a high Kd as lower affinity. Usually koff stands for a measure of how fast the partners let go of each other. A lower koff goes with a long-lived complex. The kon is the rate constant with which the complex forms. High values mean faster complex formation, low ones slower complex formation. The IC50 is the concentration that gives 50% inhibition. Read a high IC50 as lower potency.

Where two headings read alike, the source gives them in different places. Non-standard residues stand in square brackets, D forms with d. 400Mal‑PEG = 40 kD PEG moiety attached via maleimide; Cys(Me-400MA) = not defined here A value given as a limit tells only on which side of the number the result lay.

B1: JBS3318 (peptide)
peptide: Ac-EYYVSAGWYDYNTDTYYEFEC(400Mal‑PEG)-NH2
notes: JBS3319 conjugated to a 40 kD PEG moiety
Take B1: the “CAT EC50, plasmas from three individuals with severe hemophilia A” value (“CAT EC50, plasmas from three individuals” for short) in test [1] is less than 100 nM. In test [2], this molecule showed a Kd of 1.4 nM, a koff of 0.000213 s⁻¹ and a kon of 152000 M⁻¹ s⁻¹. The binding result in test [3] is on record as “no binding (tested: 1 µM)”. This molecule also registered an IC50 in test [4] of 2.8 nM.

Take Ac-EYYVSAGWYDYNTDTYYEFE-NH2 [JBS3216]: the “CAT EC50, human hemophilia A patient plasma” value in test [1] amounted to 85 nM. In test [2], this molecule had a dissociation constant Kd of 0.2 nM, a koff of 0.000233 s⁻¹ and a kon of 1.14e+06 M⁻¹ s⁻¹. In addition, the IC50 in test [5] was found to be 0.7 nM. In test [6], this molecule came in with an IC50 of 0.3 nM.

B2: JBS3322 (peptide)
peptide: Ac-EYIVTAGWYDYNKDIYYEFK[Cys(Me-400MA)]-NH2
modifications: reading uncertain
notes: JBS3206 monomer comprising a 40 kD PEG moiety
On to B2, for which the “CAT EC50, plasmas from three individuals” value in test [1] is less than 100 nM. Further, in test [2], the Kd amounted to 3.6 nM, the dissociation rate constant (koff) came out at 0.000278 s⁻¹ and the kon came to 78000 M⁻¹ s⁻¹. Besides, in test [3], the binding result is “no binding (tested: 1 µM)”. In addition, in test [4], the IC50 was determined as 4.5 nM.

B3: JBS3179 (peptide)
peptide: Ac-TGLVSAGWYDYNFDHYREFTC-NH2
modifications: not fully specified (residue 21); also: tetramer: four peptides on a 40 kD four-arm PEG core
B3: in test [1], the “CAT EC50” value was found to be 6 nM and the “CAT EC50, plasmas from three individuals” value was less than 100 nM. In test [2], this molecule gave a Kd of 0.4 nM, a koff of 0.000179 s⁻¹ and a kon of 410000 M⁻¹ s⁻¹. Moreover, the binding result in test [3] is “no binding (tested: 1 µM)”. In test [5], this molecule showed an IC50 of 8 nM.
